The target of test [1] is dimeric mouse TIGIT-Fc (R&D Systems, 7267-TG) (mouse) (UniProt P86176). Briefly: BLI (ForteBio Octet RED384), IgG on AHQ sensor, 100 nM antigen, 1:1 model. A general note: In BLI a coated tip is dipped into the sample, and binding shifts an interference pattern.
For test [2] the target is unchanged. Briefly: BLI (ForteBio), IgG on sensor, avid.
Test [3] deals with mouse TIGIT expressed on cells (mouse) (UniProt P86176). Nature of the test: flow cytometry titration, HEK 293 cells expressing mouse TIGIT.
For test [4] the target is unchanged. Nature of the test: flow cytometry on HEK 293 cells expressing the target, MFI over parental HEK 293. On the technique in general: A flow cytometer gives signals particle by particle.
Test [5] shares this target. Briefly: flow cytometry, titration on activated mouse splenic T cells.

The values below come from US20230050440A1.

dimeric mouse TIGIT-Fc (R&D Systems, 7267-TG) (mouse), sequence (P86176 other isoform, or with tags, fused parts or gaps limits assumed, form in doubt): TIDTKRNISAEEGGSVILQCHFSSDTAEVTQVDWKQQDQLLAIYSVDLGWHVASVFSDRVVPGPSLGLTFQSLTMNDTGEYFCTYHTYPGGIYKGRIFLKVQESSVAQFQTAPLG
mouse TIGIT expressed on cells (mouse), sequence (P86176 other isoform, or with tags, fused parts or gaps limits assumed, form in doubt): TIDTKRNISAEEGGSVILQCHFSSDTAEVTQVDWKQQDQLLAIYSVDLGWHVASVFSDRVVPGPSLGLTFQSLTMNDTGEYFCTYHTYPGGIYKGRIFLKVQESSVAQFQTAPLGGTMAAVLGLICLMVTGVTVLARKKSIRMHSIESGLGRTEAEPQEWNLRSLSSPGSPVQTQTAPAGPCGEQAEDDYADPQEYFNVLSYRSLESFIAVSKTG

B1: Clone 22 (antibody, V domains shown)
VH: QVQLQESGPGLVKPSETLSLTCAVSGYSISSGYYWAWIRQPPGKGLEWIGSIYHSGSTYYNPSLKSRVTISVDTSKNQFSLKLSSVTAADTAVYYCARQGYYYGSSGSVDFDLWGRGTLVTVSS
VL: DIQMTQSPSSVSASVGDRVTITCRASQGISSWLAWYQQKPGKAPKLLIYAASNLQSGVPSRFSGSGSGTDFTLTISSLQPEDFATYYCQQANSLPPWTFGGGTKVEIK
In test [1], B1 yielded a Kd of 10.5 nM.

B2: Clone 25 (antibody, V domains shown)
VH: QVQLVQSGAEVKKPGASVKVSCKASGYTFTSYAISWVRQAPGQGLEWMGWISAYNGNTNYAQKLQGRVTMTTDTSTSTAYMELRSLRSDDTAVYYCARDLSSFWSGDVLGAFDIWGQGTMVTVSS
VL: DIQMTQSPSSLSASVGDRVTITCRASQSISSYLNWYQQKPGKAPKLLIYAASSLQSGVPSRFSGSGSGTDFTLTISSLQPEDFATYYCQQSVPPRTFGGGTKVEIK
In the case of B2, the Kd in test [2] was found to be 0.967 nM; in test [1], 1.1 nM. Moreover, the half-maximal effective concentration (EC50) in test [3] was 0.24 mg/L; in test [5] it was 2.28 mg/L. For the same molecule, the FOB (Fold Over Background) in test [4] is 117 fold.

B3: Clone 25D (antibody, V domains shown)
VH: QVQLVQSGAEVKKPGASVKVSCKASGYTFTSYPIGWVRQAPGQGLEWMGWISSYNGNTNYAQKLQGRVTMTTDTSTSTAYMELRSLRSDDTAVYYCARDLKSFWSGDVLGAFDIWGQGTMVTVSS
VL: DIQMTQSPSSLSASVGDRVTITCRASQSISSYLNWYQQKPGKAPKLLIYAASSLQSGVPSRFSGSGSGTDFTLTISSLQPEDFATYYCQQSVPPRTFGGGTKVEIK
As to B3, the dissociation constant Kd in test [2] was determined as 0.58 nM. Further, the FOB (Fold Over Background) in test [4] came to 137 fold.

B4: Clone 25A (antibody, V domains shown)
VH: QVQLVQSGAEVKKPGASVKVSCKASGYTFTSYAISWVRQAPGQGLEWMGWISAYNGNTKYAQKLQGRVTMTTDTSTSTAYMELRSLRSDDTAVYYCARDLSSFWSGDVLGAFDIWGQGTMVTVSS
VL: DIQMTQSPSSLSASVGDRVTITCRASQSISSYLNWYQQKPGKAPKLLIYAASSLQSGVPSRFSGSGSGTDFTLTISSLQPEDFATYYCQQSVPPRTFGGGTKVEIK
Turning to B4, the Kd in test [2] worked out at 0.823 nM. Further, the FOB (Fold Over Background) in test [4] is 119 fold.

B5: Clone 25E (antibody, V domains shown)
VH: QVQLVQSGAEVKKPGASVKVSCKASGYTFTSYAIAWVRQAPGQGLEWMGWISAYNGNTNYAQKLQGRVTMTTDTSTSTAYMELRSLRSDDTAVYYCARSGSSFWSGDVLGAFDIWGQGTMVTVSS
VL: DIQMTQSPSSLSASVGDRVTITCRASQSISSYLNWYQQKPGKAPKLLIYAASSLQSGVPSRFSGSGSGTDFTLTISSLQPEDFATYYCQQSVPPRTFGGGTKVEIK
As for B5, in test [2], the equilibrium dissociation constant (Kd) was 0.566 nM. Besides, in test [4], the FOB (Fold Over Background) was found to be 116 fold.

B6: Clone 25C (antibody, V domains shown)
VH: QVQLVQSGAEVKKPGASVKVSCKASGYTFTSYPIGWVRQAPGQGLEWMGWISSYNGNTNYAQKLQGRVTMTTDTSTSTAYMELRSLRSDDTAVYYCARGASSFWSGDVLGAFDIWGQGTMVTVSS
VL: DIQMTQSPSSLSASVGDRVTITCRASQSISSYLNWYQQKPGKAPKLLIYAASSLQSGVPSRFSGSGSGTDFTLTISSLQPEDFATYYCQQSVPPRTFGGGTKVEIK
Turning to B6, the Kd in test [2] was 0.494 nM. Moreover, the FOB (Fold Over Background) in test [4] amounted to 124 fold.

B7: Clone 25B (antibody, V domains shown)
VH: QVQLVQSGAEVKKPGASVKVSCKASGYTFTSYPIGWVRQAPGQGLEWMGWISSYNGNTNYAQKLQGRVTMTTDTSTSTAYMELRSLRSDDTAVYYCARDLSSFWSGDVLGAFDIWGQGTMVTVSS
VL: DIQMTQSPSSLSASVGDRVTITCRASQSISSYLNWYQQKPGKAPKLLIYAASSLQSGVPSRFSGSGSGTDFTLTISSLQPEDFATYYCQQSVPPRTFGGGTKVEIK
B7: the Kd in test [2] was 0.719 nM. In test [4], the FOB (Fold Over Background) was 129 fold.

B8: Clone 16D (antibody, V domains shown)
VH: QVQLVQSGAEVKKPGSSVKVSCKASGGTFSDYPISWVRQAPGQGLEWMGGIIPIVGGANYAQKFQGRVTITADESTSTAYMELSSLRSEDTAVYYCTRQSTWHKLFGTDVWGQGTTVTVSS
VL: DIQMTQSPSSVSASVGDRVTITCRASQGISSWLAWYQQKPGKAPKLLIYAASSLQSGVPSRFSGSGSGTDFTLTISSLQPEDFATYYCQQGDSLPPTFGGGTKVEIK
B8 gave a Kd in test [2] of 2.63 nM. For the same molecule, in test [4], the FOB (Fold Over Background) was found to be 63 fold.

B9: Clone 16C (antibody, V domains shown)
VH: QVQLVQSGAEVKKPGSSVKVSCKASGGTFREYAISWVRQAPGQGLEWMGGIHPIFGTARYAQKFQGRVTITADESTSTAYMELSSLRSEDTAVYYCTRQSTWHKLYGTDVWGQGTTVTVSS
VL: DIQMTQSPSSVSASVGDRVTITCRASQGISSWLAWYQQKPGKAPKLLIYAASSLQSGVPSRFSGSGSGTDFTLTISSLQPEDFATYYCQQGDSLPPTFGGGTKVEIK
For B9, the dissociation constant Kd in test [2] worked out at 0.801 nM. Also, the FOB (Fold Over Background) in test [4] amounted to 99 fold.

B10: Clone 16E (antibody, V domains shown)
VH: QVQLVQSGAEVKKPGSSVKVSCKASGGTFSDYPISWVRQAPGQGLEWMGGIIPIVGGANYAQKFQGRVTITADESTSTAYMELSSLRSEDTAVYYCARQSTWHKVYGTDVWGQGTTVTVSS
VL: DIQMTQSPSSVSASVGDRVTITCRASQGISSWLAWYQQKPGKAPKLLIYAASSLQSGVPSRFSGSGSGTDFTLTISSLQPEDFATYYCQQGDSLPPTFGGGTKVEIK
B10 gave a Kd in test [2] of 3.7 nM. Further, the FOB (Fold Over Background) in test [4] came to 56 fold.

B11: Clone 18 (antibody, V domains shown)
VH: QVQLVQSGAEVKKPGASVKVSCKASGYTFTSYYMSWVRQAPGQGLEWMGIINPSGGSTSYAQKFQGRVTMTRDTSTSTVYMELSSLRSEDTAVYYCARVRYGYADGMDVWGQGTTVTVSS
VL: DIQMTQSPSSLSASVGDRVTITCRASQSISSYLNWYQQKPGKAPKLLIYGASSLQSGVPSRFSGSGSGTDFTLTISSLQPEDFATYYCQQVYHLPFTFGGGTKVEIK
For B11, the dissociation constant (Kd) in test [1] is 8.82 nM.

As usually defined, the Kd is the constant that tells how readily two partners part at equilibrium. The low end stands for a tighter complex, the high end for a looser complex. A word on the EC50: it is the concentration giving half of the maximal effect.
